The data set can be described thus: amyloid nucleation score (Sup35N fusion, yeast selection) (log enrichment); library NNK1; higher = more nucleation; inactive = no reads after selection. Put shortly: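 Peptides of 20 random codons fused to Sup35N were expressed in psi-negative yeast, induced 24 hours with 100 μM copper sulfate, then grown 7 days at 30°C on medium lacking adenine and uracil. Input and output plasmid inserts were Illumina-sequenced. Nucleation score is the DiMSum log enrichment of output over input reads, centred on the mode score of non-aggregating sequences, excluding sequences with under 100 input reads. Random libraries had three technical output replicates.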

This note sets out measurements from the supplement of paper PMC12042874.

± gives the uncertainty stated by the source.

Turning to FSRCPHQALSTECFPFFGS, the amyloid nucleation score was -0.122 ± 1.4.

Substance VSFRFLMGFVYVKCWSSSLD gave an amyloid nucleation score of 1.38 ± 0.69.

As for FKVNRHLPELHLCKGTEWKL, the amyloid nucleation score result is “inactive”.

As for VECLKV, the amyloid nucleation score came out at 0.387 ± 0.52.

Substance MCIFICLPVTVYDNIFHSFL registered an amyloid nucleation score of 6.22 ± 0.096.

As for WVLGGEFPYKRGGIAASLVL, the amyloid nucleation score was -0.327 ± 0.84.

Substance TNSFSSSLRMV gave an amyloid nucleation score of 0.076 ± 0.88.

On to FPDELESWRTSASPRVAPMG, for which the amyloid nucleation score is -0.247 ± 1.9.

AKVCLKSVTQFTTHLLMSRG came in with an amyloid nucleation score of -0.009 ± 0.77.

For FSMGSVWTEERQLCWVPMVW, the amyloid nucleation score is 1.11 ± 0.94.

As to SLLCCVLVFSFCFSPFRSSE, the amyloid nucleation score is 1.52 ± 0.16.

For the substance RGMIFLHQASCLHRDN, the amyloid nucleation score is -0.836 ± 0.61.

In the case of YANTTWSLTLTTVQHRNVAD, the amyloid nucleation score came out at 3.35 ± 0.16.

LVPNLLVHGVYY gave an amyloid nucleation score of -2.39 ± 2.4.

Take NYLTHG: the amyloid nucleation score turned out to be 0.311 ± 0.37.

With TRFNTSEDHSLDNIEA, the amyloid nucleation score is -0.542 ± 0.93.

The substance SWWPDGLNEMSG came in with an amyloid nucleation score of 1.11 ± 0.74.

HGLNVTLDVHGESYLHIYVW came in with an amyloid nucleation score of -0.036 ± 0.62.

Turning to LKCRLLVQTQLSESRGMWTS, the amyloid nucleation score was 0.316 ± 0.7.

Substance LVRLVVLLKEPGEDRFIIEH displayed an amyloid nucleation score of -0.427 ± 0.79.

In the case of LHLNLLAQDHLCREMTAAMS, the amyloid nucleation score is -0.771 ± 1.7.

In the case of YADNSSTLMSDILFTIYRIG, the amyloid nucleation score stood at 1.06 ± 0.095.

QDFVMSYLCRLKGWLDKRYR showed an amyloid nucleation score of 0.472 ± 0.25.

With CEGCDMGWLRSTNRQLMAYL, the amyloid nucleation score result is “inactive”.

Take GFNMLC: the amyloid nucleation score is 0.224 ± 0.5.

As to YVLFFSPCT, the amyloid nucleation score result is “inactive”.

As for AILNRLLSLPSFPVPSSDSQ, the amyloid nucleation score amounted to 0.466 ± 1.4.

For the substance VHTINRTQLYNIH, the amyloid nucleation score is -0.215 ± 0.65.

Substance TLGTSGTSSV showed an amyloid nucleation score of -0.544 ± 0.49.

As to FLFYRCLGVKFFVFFMIVSK, the amyloid nucleation score was -0.817 ± 2.4.

In the case of TLCQFSSARACYAWVVFPTY, the amyloid nucleation score is 1.19 ± 0.21.

With CFIDQYVVTNCSLLTYFM, the amyloid nucleation score is 0.145 ± 0.88.

Consider IYNRKTYFMTTSATVVFAVP, for which the amyloid nucleation score turned out to be 0.696 ± 0.4.

Consider FGGKHFYVGGRFGLLNMCDF, for which the amyloid nucleation score was -0.548 ± 2.1.

In turn, KFTVVVAVSCRRLPSNICRI displayed an amyloid nucleation score of 0.141 ± 0.53.

As to DFYADIASVMSVPILCSLLG, the amyloid nucleation score result was “inactive”.

In turn, FYRFLQPMS showed an amyloid nucleation score of -0.809 ± 0.88.

The substance QWAFYVNYLTSRDYFNIFTR registered an amyloid nucleation score of 1.05 ± 0.16.

Regarding EVQSDSSEVRDTEYMDISSW, the amyloid nucleation score entry is “inactive”.

Regarding MDPIPREAQVKVLSSHTTIG, the amyloid nucleation score came to 0.606 ± 0.53.

FVGCRHHFGPCTNRCTK showed an amyloid nucleation score of 0.087 ± 0.9.

The substance ININGNVY gave an amyloid nucleation score of 0.849 ± 1.1.

On to CQEKRSFPVNMNRDIPCLSS, for which the amyloid nucleation score was determined as 0.193 ± 1.5.

In turn, AWIRGQTVSCLYYAEGLELG displayed an amyloid nucleation score of -0.448 ± 0.71.

For FIFWGDLFWV, the amyloid nucleation score was -0.992 ± 0.32.

In the case of LCNVEDRPYKKFPTDVASK, the amyloid nucleation score was -0.031 ± 0.31.

For the substance ATRVPPFMEVLSPYH, the amyloid nucleation score result is “inactive”.

GYNNRRDFPLSMPCRH yielded an amyloid nucleation score of -0.363 ± 0.88.

In turn, GSVAKRPVVKISRHPLCMVW yielded an amyloid nucleation score of 0.364 ± 0.24.

For QVALYKVVVYKTWDVGFPSC, the amyloid nucleation score stood at 0.988 ± 0.9.

VKTHSVFSMMVV came in with an amyloid nucleation score of 0.558 ± 0.51.

Regarding SHMDHGRQRWCSN, the amyloid nucleation score is 0.83 ± 0.88.

Substance SCGNLIVRPLVGVCHAWNEE yielded an amyloid nucleation score of 0.489 ± 0.46.

For SFAHHAFIGFILSSWWN, the amyloid nucleation score is -1.06 ± 2.4.

With HCQVQHLTQFMWVIVMRTRD, the amyloid nucleation score is 3.5 ± 0.14.

In turn, YEKMTRFNVGKCHMVHFSLP had an amyloid nucleation score of -0.376 ± 1.4.

VEEGNMRCSNLMTLEHTTHK registered an amyloid nucleation score of -0.582 ± 0.42.

As for TVMVGLKVCAHQLDSM, the amyloid nucleation score turned out to be 1.28 ± 0.4.

As to LCDMAIDVFCLSCCK, the amyloid nucleation score was 6.652 ± 0.05.

GVMSTDPFLTLYTVLVGVLI: the amyloid nucleation score result is “inactive”.

As to YSADMFRADGLWFRGSRWG, the amyloid nucleation score is 0.308 ± 0.57.

For the substance TVLGQH, the amyloid nucleation score is -0.058 ± 0.29.

As for SDEGN, the amyloid nucleation score is 1.55 ± 0.53.

Regarding EAVSPYMYNYFRMANEQ, the amyloid nucleation score came out at 0.311 ± 0.42.

As for ESHLRASAGLWLSAGRDCNG, the amyloid nucleation score came to 1.38 ± 0.63.

On to WFAGAGLIMRNVRSGW, for which the amyloid nucleation score was -0.126 ± 0.66.

In the case of LNWNCITCTLNFVKYVTDCR, the amyloid nucleation score came to 7.866 ± 0.046.

Regarding QFDCPEHKRIHYRGPHPKRK, the amyloid nucleation score was -0.356 ± 0.33.

SKQFQASFHRVYSSVFSGWH: the amyloid nucleation score came out at 0.669 ± 0.38.

In turn, SCLLTMSLE displayed an amyloid nucleation score of 0.11 ± 0.43.

VWSILCMCNRSHLWVKSSKR showed an amyloid nucleation score of 0.988 ± 0.35.

With RRVGLVASDTGRGEWWTRSM, the amyloid nucleation score was -0.015 ± 0.55.

The substance APKITGQTSNVGTRA yielded an amyloid nucleation score of -0.028 ± 0.52.

PHVFRFSFPTLILIGSFNFC: the amyloid nucleation score amounted to 3.14 ± 0.12.

YIYDIGGLTHATMRCTCR: the amyloid nucleation score turned out to be 0.635 ± 0.49.

On to STYYVVRDFFLDSSTGTVYS, for which the amyloid nucleation score was -0.031 ± 0.61.

As for AVELI, the amyloid nucleation score was -0.436 ± 0.34.

In turn, DWWLPGMLMNRGGLQIVVLV registered an amyloid nucleation score of -0.84 ± 1.1.

The substance QASSGIDVNHFYAVNLTSML came in with an amyloid nucleation score of 0.487 ± 0.97.

In turn, CRATTP registered an amyloid nucleation score of 0.282 ± 0.49.

As for FLSYDMLYVKLT, the amyloid nucleation score was 2.44 ± 0.16.

Regarding IIFWGLCICHPVLPTRGGWE, the amyloid nucleation score came to 7.26 ± 0.084.

In the case of YTSGLFGF, the amyloid nucleation score is -0.531 ± 0.37.

The substance CYHSKFAVAYQSRICWPWRD registered an amyloid nucleation score of 1.26 ± 0.67.

Regarding LPTSTVSCQNWDTLLTLCSG, the amyloid nucleation score is -0.094 ± 0.77.

Substance SYKVTLVYSRHVVGVKVTRI registered an amyloid nucleation score of 0.233 ± 0.86.

TAAYRFNESVHVSNSRFMVH showed an amyloid nucleation score of 0.334 ± 0.42.

YHNGDYCCVQFTTGSWVVRW returned an amyloid nucleation score of 0.391 ± 0.28.

Regarding FHICGFRYSHLGREPMKFGI, the amyloid nucleation score came to 2.23 ± 0.19.

For ACSPSLVL, the amyloid nucleation score was found to be 1.52 ± 0.84.

In the case of MCSSKPSGPLAVN, the amyloid nucleation score was -1.02 ± 0.52.

As for HCIWKMLNLFSSLRLSIKLI, the amyloid nucleation score was -2.16 ± 2.4.

Substance LFGLNWYNNGGRKSGCSDWA showed an amyloid nucleation score of -0.503 ± 0.98.

As for IVVGRC, the amyloid nucleation score is 0.144 ± 0.39.

On to SIPYSRRVF, for which the amyloid nucleation score is 0.103 ± 0.41.

FTVSRPIMYIVYNCLHSVCV: the amyloid nucleation score was 4.61 ± 0.049.

Consider DDKSFQ, for which the amyloid nucleation score turned out to be 0.614 ± 0.37.

The substance RMQVKDLVDQVKTTFKCTHT showed an amyloid nucleation score of 0.303 ± 0.37.

FIRCVNSV came in with an amyloid nucleation score of -0.745 ± 2.4.

The substance GTVPNVRKYPCFLCSMRR yielded an amyloid nucleation score of -1.28 ± 1.4.

RNIPGFVETVINGSCGALLT returned an amyloid nucleation score of 0.636 ± 0.52.

The substance LMSYSECQLSLNAYRGGRVE returned an amyloid nucleation score of 0.373 ± 0.55.

In turn, FRSSFGMTHYWEWRASSGRN came in with an amyloid nucleation score of 0.882 ± 0.2.

REWIYLVVETPCYFVDDVMD came in with an amyloid nucleation score of -0.71 ± 0.52.

For the substance FMMCAYSLVPILLP, the amyloid nucleation score came to 0.136 ± 1.1.

With VNLGKNFTQLLIGRCVSKVR, the amyloid nucleation score is 0.417 ± 0.33.

Take PESCANSWSMSYGAFGAVYC: the amyloid nucleation score entry is “inactive”.

PELAGRLSVRDLLW: the amyloid nucleation score worked out at 0.059 ± 0.47.

Substance FTLGVFSL showed an amyloid nucleation score of 0.017 ± 0.22.

For PKNKAAVKNSMALPIARQ, the amyloid nucleation score was -0.192 ± 0.73.

In turn, EHSSVCLESSQYVRMVVIKQ showed an amyloid nucleation score of 0.531 ± 0.66.

The substance FCTHHWG displayed an amyloid nucleation score of -0.382 ± 0.6.

KYFIMCDIILCVVPVSYTGG registered an amyloid nucleation score of 3.87 ± 0.074.

In turn, LFRIPDWPEL had an amyloid nucleation score of -1.07 ± 0.77.

The substance HMADTRVADCSQLLR returned an amyloid nucleation score of 0.409 ± 0.81.

For the substance RYIRLRMFLCLFYLMCLPRR, the amyloid nucleation score is -1.25 ± 0.75.

YTNLAT: the amyloid nucleation score is 0.251 ± 0.5.

The substance SRHVLLPISFGTV showed an amyloid nucleation score of 0.377 ± 0.61.

Consider GLDKALTFKALCDLLRNSLC, for which the amyloid nucleation score amounted to 0.598 ± 1.2.

In turn, YQQPEDCMFECTVVYSSKSR gave an amyloid nucleation score of -0.062 ± 0.26.

HTRRTEFHAGYYRINTAYAV: the amyloid nucleation score was 0.268 ± 0.7.

Take DTSSACLCNRDRSDLLVCRV: the amyloid nucleation score entry was “inactive”.

NFICLHQNNMLISPKGTATR yielded an amyloid nucleation score of 0.672 ± 0.31.

The substance CSKIVYPCSTFTSLFYLFLP displayed an amyloid nucleation score of -0.614 ± 0.8.

SRVVSYSL yielded an amyloid nucleation score of -0.5 ± 0.41.

On to LTVGYSRYIPVRYGF, for which the amyloid nucleation score was -1.08 ± 0.43.

Consider MARVC, for which the amyloid nucleation score is -1.56 ± 2.4.

As for DWVPLKSHISWLSVTRVLIV, the amyloid nucleation score is 0.636 ± 0.46.

For the substance SYTSRPYFTNIYVDYWFMVC, the amyloid nucleation score is 6.216 ± 0.05.

As for EASLAPYEESELA, the amyloid nucleation score came out at 1.76 ± 0.54.

Substance NHGCQIFRG registered an amyloid nucleation score of 0.667 ± 0.64.

Take MQFCVEYTRPVRYQLWGSLM: the amyloid nucleation score stood at 0.327 ± 0.83.

For WTRLLD, the amyloid nucleation score entry was “inactive”.

Turning to CQLSNTSIACSLYNLHCRSW, the amyloid nucleation score amounted to 4.42 ± 0.13.

GVESLLCYASPLVSWAIFAD: the amyloid nucleation score is -0.424 ± 0.28.

Consider RAAYACWHFTLYNFSLIVTT, for which the amyloid nucleation score is 1.83 ± 0.57.

In the case of PANSSMSSNY, the amyloid nucleation score was determined as 0.091 ± 1.5.

The substance MWAAGDNHYSNKVLSLAMVV yielded an amyloid nucleation score of 0.501 ± 1.

On to IKFERAIRSSVGKQRC, for which the amyloid nucleation score was found to be 0.784 ± 0.71.

Regarding IGACFWRFIFVKLSTNL, the amyloid nucleation score was -0.406 ± 0.36.
